The target in this experiment is T1, full-length hCDCP1 with N-terminal c-Myc tag (expression vector GS01), on Ba/F3-hCDCP1 cells or … (human, UniProt Q9H5V8 30-836).
T1 construct: also called human CDCP1; hCDCP1 forced expression cells
T1 sequence: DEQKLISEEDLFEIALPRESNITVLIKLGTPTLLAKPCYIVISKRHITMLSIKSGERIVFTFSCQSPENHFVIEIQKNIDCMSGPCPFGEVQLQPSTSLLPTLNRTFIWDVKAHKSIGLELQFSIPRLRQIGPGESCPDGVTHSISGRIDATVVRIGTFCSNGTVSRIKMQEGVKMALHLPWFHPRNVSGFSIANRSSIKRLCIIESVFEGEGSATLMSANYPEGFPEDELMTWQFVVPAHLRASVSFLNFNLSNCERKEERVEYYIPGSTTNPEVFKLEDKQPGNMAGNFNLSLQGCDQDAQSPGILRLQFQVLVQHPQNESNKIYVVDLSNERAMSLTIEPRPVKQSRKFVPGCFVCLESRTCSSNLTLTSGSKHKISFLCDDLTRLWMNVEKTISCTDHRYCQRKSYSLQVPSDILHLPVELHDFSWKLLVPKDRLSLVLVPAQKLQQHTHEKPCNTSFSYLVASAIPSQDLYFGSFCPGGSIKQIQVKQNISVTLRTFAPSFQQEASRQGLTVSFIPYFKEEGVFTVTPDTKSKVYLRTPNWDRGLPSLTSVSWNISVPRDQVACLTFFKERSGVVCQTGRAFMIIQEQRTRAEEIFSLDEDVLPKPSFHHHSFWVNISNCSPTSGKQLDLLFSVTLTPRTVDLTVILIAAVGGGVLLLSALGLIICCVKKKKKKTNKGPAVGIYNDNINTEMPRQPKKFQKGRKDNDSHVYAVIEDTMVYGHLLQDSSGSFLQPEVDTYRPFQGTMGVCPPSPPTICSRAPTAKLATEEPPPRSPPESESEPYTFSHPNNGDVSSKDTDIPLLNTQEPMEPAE
Kind of experiment: flow cytometry on Ba/F3-hCDCP1 cells. In general terms: In flow cytometry, cells or beads pass a laser one at a time.

B1: mh12A041HCori/LCoriA (antibody, human IgG1, kappa, V domains shown)
VH: EVQLQESGPGILQPSQTLSLTCSFSGFSLSTSGMGVSWIRQPSGKGLEWLAHIYWDDDKRYNPSLKSRLTISKDTSSNQVFLKITSVDTADTATYYCARSGSYYGSSLDCWGQGTTLTVSS
VL: DVLMTQTPLSLPVSLGDQASISCRSSQSIVYSNGNTYLEWYLQKPGQSPKLLIYKVSNRFSGVPDRFSGSGSGTDFTLKISRVEAEDLGVYYCFQGSHVPWTFGGGTKLEIRR
notes: mouse-human chimeric antibody, human IgG1/kappa constant regions
With B1, the binding result is listed as “binds”.

B2: mh12A041HCoriA/LCoriA (antibody, human IgG1, kappa, V domains shown)
VH: EVQLQESGPGILQPSQTLSLTCSFSGFSLSTFGMGVSWIRQPSGKGLEWLAHIYWDDDKRYNPSLKSRLTISKDTSSNQVFLKITSVDTADTATYYCARSGSYYGSSLDCWGQGTTLTVSS
VL: DVLMTQTPLSLPVSLGDQASISCRSSQSIVYSNGNTYLEWYLQKPGQSPKLLIYKVSNRFSGVPDRFSGSGSGTDFTLKISRVEAEDLGVYYCFQGSHVPWTFGGGTKLEIRR
notes: as for B1
For the molecule B2, the binding result is on record as “binds”.

B3: mh12A041HCoriA/LCoriB (antibody, human IgG1, kappa, V domains shown)
VH: EVQLQESGPGILQPSQTLSLTCSFSGFSLSTFGMGVSWIRQPSGKGLEWLAHIYWDDDKRYNPSLKSRLTISKDTSSNQVFLKITSVDTADTATYYCARSGSYYGSSLDCWGQGTTLTVSS
VL: DVLMTQTPLSLPVSLGDQASISCRSSQNIVHSDGNTYLEWYLQKPGQSPKLLIYKVSNRFSGVPDRFSGSGSGTDFTLKISRVEAEDLGVYYCFQGSHVPWTFGGGTKLEIRR
notes: as for B1
For B3, the binding result was “binds”.

B4: mh12A041HCori/LCv1 (antibody, human IgG1, kappa, V domains shown)
VH: EVQLQESGPGILQPSQTLSLTCSFSGFSLSTSGMGVSWIRQPSGKGLEWLAHIYWDDDKRYNPSLKSRLTISKDTSSNQVFLKITSVDTADTATYYCARSGSYYGSSLDCWGQGTTLTVSS
VL: DVLMTQTPLSLPVSLGDQASISCRSSQSIVHSSGNTYLEWYLQKPGQSPKLLIYKVSNRFSGVPDRFSGSGSGTDFTLKISRVEAEDLGVYYCFQGSHVPWTFGGGTKLEIRR
notes: as for B1
As for B4, the binding result is given as “binds”.

B5: mh12A041HCori/LCoriB (antibody, human IgG1, kappa, V domains shown)
VH: EVQLQESGPGILQPSQTLSLTCSFSGFSLSTSGMGVSWIRQPSGKGLEWLAHIYWDDDKRYNPSLKSRLTISKDTSSNQVFLKITSVDTADTATYYCARSGSYYGSSLDCWGQGTTLTVSS
VL: DVLMTQTPLSLPVSLGDQASISCRSSQNIVHSDGNTYLEWYLQKPGQSPKLLIYKVSNRFSGVPDRFSGSGSGTDFTLKISRVEAEDLGVYYCFQGSHVPWTFGGGTKLEIRR
notes: as for B1
In the case of B5, the binding result was “binds”.

B6: mh12A041HCv1/LCv2 (antibody, human IgG1, kappa, V domains shown)
VH: EVQLQESGPGILQPSQTLSLTCSFSGFSLSTSGMGVSWIRQPSGKGLEWLAHIYWDDDKRYNPSLKSRLTISKDTSSNQVFLKITSVDTADTATYYCARSGSYYGSSLDSWGQGTTLTVSS
VL: DVLMTQTPLSLPVSLGDQASISCRSSQSIVHSNANTYLEWYLQKPGQSPKLLIYKVSNRFSGVPDRFSGSGSGTDFTLKISRVEAEDLGVYYCFQGSHVPWTFGGGTKLEIRR
notes: as for B1
With B6, the binding result is on record as “binds”.

B7: mh12A041HCv1/LCv1 (antibody, human IgG1, kappa, V domains shown)
VH: EVQLQESGPGILQPSQTLSLTCSFSGFSLSTSGMGVSWIRQPSGKGLEWLAHIYWDDDKRYNPSLKSRLTISKDTSSNQVFLKITSVDTADTATYYCARSGSYYGSSLDSWGQGTTLTVSS
VL: DVLMTQTPLSLPVSLGDQASISCRSSQSIVHSSGNTYLEWYLQKPGQSPKLLIYKVSNRFSGVPDRFSGSGSGTDFTLKISRVEAEDLGVYYCFQGSHVPWTFGGGTKLEIRR
notes: as for B1
For B7, the binding result is “binds”.

B8: mh12A041HCv1/LCori (antibody, human IgG1, kappa, V domains shown)
VH: EVQLQESGPGILQPSQTLSLTCSFSGFSLSTSGMGVSWIRQPSGKGLEWLAHIYWDDDKRYNPSLKSRLTISKDTSSNQVFLKITSVDTADTATYYCARSGSYYGSSLDSWGQGTTLTVSS
VL: DVLMTQTPLSLPVSLGDQASISCRSSQSIVHSNGNTYLEWYLQKPGQSPKLLIYKVSNRFSGVPDRFSGSGSGTDFTLKISRVEAEDLGVYYCFQGSHVPWTFGGGTKLEIKR
notes: as for B1
Take B8: the binding result was “binds”.

B9: mh12A041HCoriA/LCori (antibody, human IgG1, kappa, V domains shown)
VH: EVQLQESGPGILQPSQTLSLTCSFSGFSLSTFGMGVSWIRQPSGKGLEWLAHIYWDDDKRYNPSLKSRLTISKDTSSNQVFLKITSVDTADTATYYCARSGSYYGSSLDCWGQGTTLTVSS
VL: DVLMTQTPLSLPVSLGDQASISCRSSQSIVHSNGNTYLEWYLQKPGQSPKLLIYKVSNRFSGVPDRFSGSGSGTDFTLKISRVEAEDLGVYYCFQGSHVPWTFGGGTKLEIKR
notes: as for B1
Take B9: the binding result is listed as “binds”.

B10: mh12A041HCori/LCv2 (antibody, human IgG1, kappa, V domains shown)
VH: EVQLQESGPGILQPSQTLSLTCSFSGFSLSTSGMGVSWIRQPSGKGLEWLAHIYWDDDKRYNPSLKSRLTISKDTSSNQVFLKITSVDTADTATYYCARSGSYYGSSLDCWGQGTTLTVSS
VL: DVLMTQTPLSLPVSLGDQASISCRSSQSIVHSNANTYLEWYLQKPGQSPKLLIYKVSNRFSGVPDRFSGSGSGTDFTLKISRVEAEDLGVYYCFQGSHVPWTFGGGTKLEIRR
notes: as for B1
B10: the binding result was “binds”.

B11: mh14A025HCv1/LCori (antibody, human IgG1, kappa, V domains shown)
VH: EVQLQESGAELVRPGALVKLSCKASGFNIKDYYMHWVKQRPEQGLEWIGWIDPESGNTIYDPKFQGKASITADTSSNTAYLQLSSLTSEDTAVYYCGGLLYAMDYWGQGTSVTVSS
VL: DIQMTQTTSSLSASLGDRVTISCRASQDISNYLNWYQQKPDGTVKLLIYFTSRLHSGVPSRFSGSGSGTDYSLTISNLEQEDIATYFCQQGNTLPRTFGGGTKLEIRR
notes: as for B1
As for B11, the binding result was “binds”.

B12: mh14A025HCv2/LCori (antibody, human IgG1, kappa, V domains shown)
VH: EVQLQESGAELVRPGALVKLSCKASGFNIKDYYMHWVKQRPEQGLEWIGWIDPENANTIYDPKFQGKASITADTSSNTAYLQLSSLTSEDTAVYYCGGLLYAMDYWGQGTSVTVSS
VL: DIQMTQTTSSLSASLGDRVTISCRASQDISNYLNWYQQKPDGTVKLLIYFTSRLHSGVPSRFSGSGSGTDYSLTISNLEQEDIATYFCQQGNTLPRTFGGGTKLEIRR
notes: as for B1
For the molecule B12, the binding result was “binds”.

B13: mh14A025HCv7/LCori (antibody, human IgG1, kappa, V domains shown)
VH: EVQLQESGAELVRPGALVKLSCKASGFNIKDYYMHWVKQRPEQGLEWIGWIDPENENTIYDPKFQGKASITADTSSNTAYLQLSSLTSEDTAVYYCGGLLYAMDYWGQGTSVTVSS
VL: DIQMTQTTSSLSASLGDRVTISCRASQDISNYLNWYQQKPDGTVKLLIYFTSRLHSGVPSRFSGSGSGTDYSLTISNLEQEDIATYFCQQGNTLPRTFGGGTKLEIRR
notes: as for B1
As to B13, the binding result is “binds”.

B14: mh14A025HCv19/LCori (antibody, human IgG1, kappa, V domains shown)
VH: EVQLQESGAELVRPGALVKLSCKASGFNIKDYYMHWVKQRPEQGLEWIGWIDPERGNTIYDPKFQGKASITADTSSNTAYLQLSSLTSEDTAVYYCGGLLYAMDYWGQGTSVTVSS
VL: DIQMTQTTSSLSASLGDRVTISCRASQDISNYLNWYQQKPDGTVKLLIYFTSRLHSGVPSRFSGSGSGTDYSLTISNLEQEDIATYFCQQGNTLPRTFGGGTKLEIRR
notes: as for B1
For the molecule B14, the binding result is recorded as “binds”.

B15: mh14A025HCv8/LCori (antibody, human IgG1, kappa, V domains shown)
VH: EVQLQESGAELVRPGALVKLSCKASGFNIKDYYMHWVKQRPEQGLEWIGWIDPEFGNTIYDPKFQGKASITADTSSNTAYLQLSSLTSEDTAVYYCGGLLYAMDYWGQGTSVTVSS
VL: DIQMTQTTSSLSASLGDRVTISCRASQDISNYLNWYQQKPDGTVKLLIYFTSRLHSGVPSRFSGSGSGTDYSLTISNLEQEDIATYFCQQGNTLPRTFGGGTKLEIRR
notes: as for B1
Consider B15, for which the binding result is reported as “binds”.

B16: mh14A025HCv15/LCori (antibody, human IgG1, kappa, V domains shown)
VH: EVQLQESGAELVRPGALVKLSCKASGFNIKDYYMHWVKQRPEQGLEWIGWIDPENLNTIYDPKFQGKASITADTSSNTAYLQLSSLTSEDTAVYYCGGLLYAMDYWGQGTSVTVSS
VL: DIQMTQTTSSLSASLGDRVTISCRASQDISNYLNWYQQKPDGTVKLLIYFTSRLHSGVPSRFSGSGSGTDYSLTISNLEQEDIATYFCQQGNTLPRTFGGGTKLEIRR
notes: as for B1
Consider B16, for which the binding result was “binds”.

B17: mh14A025HCv5/LCori (antibody, human IgG1, kappa, V domains shown)
VH: EVQLQESGAELVRPGALVKLSCKASGFNIKDYYMHWVKQRPEQGLEWIGWIDPENDNTIYDPKFQGKASITADTSSNTAYLQLSSLTSEDTAVYYCGGLLYAMDYWGQGTSVTVSS
VL: DIQMTQTTSSLSASLGDRVTISCRASQDISNYLNWYQQKPDGTVKLLIYFTSRLHSGVPSRFSGSGSGTDYSLTISNLEQEDIATYFCQQGNTLPRTFGGGTKLEIRR
notes: as for B1
On to B17, for which the binding result is listed as “binds”.

B18: mh14A025HCv17/LCori (antibody, human IgG1, kappa, V domains shown)
VH: EVQLQESGAELVRPGALVKLSCKASGFNIKDYYMHWVKQRPEQGLEWIGWIDPENMNTIYDPKFQGKASITADTSSNTAYLQLSSLTSEDTAVYYCGGLLYAMDYWGQGTSVTVSS
VL: DIQMTQTTSSLSASLGDRVTISCRASQDISNYLNWYQQKPDGTVKLLIYFTSRLHSGVPSRFSGSGSGTDYSLTISNLEQEDIATYFCQQGNTLPRTFGGGTKLEIRR
notes: as for B1
As to B18, the binding result is reported as “binds”.

For the origin of these results see patent US20230050380A1 (CHIOME BIOSCIENCE, published 2023).
